T1: DEAF1-FLAG (human, UniProt O75398 1-565)
T1 sequence: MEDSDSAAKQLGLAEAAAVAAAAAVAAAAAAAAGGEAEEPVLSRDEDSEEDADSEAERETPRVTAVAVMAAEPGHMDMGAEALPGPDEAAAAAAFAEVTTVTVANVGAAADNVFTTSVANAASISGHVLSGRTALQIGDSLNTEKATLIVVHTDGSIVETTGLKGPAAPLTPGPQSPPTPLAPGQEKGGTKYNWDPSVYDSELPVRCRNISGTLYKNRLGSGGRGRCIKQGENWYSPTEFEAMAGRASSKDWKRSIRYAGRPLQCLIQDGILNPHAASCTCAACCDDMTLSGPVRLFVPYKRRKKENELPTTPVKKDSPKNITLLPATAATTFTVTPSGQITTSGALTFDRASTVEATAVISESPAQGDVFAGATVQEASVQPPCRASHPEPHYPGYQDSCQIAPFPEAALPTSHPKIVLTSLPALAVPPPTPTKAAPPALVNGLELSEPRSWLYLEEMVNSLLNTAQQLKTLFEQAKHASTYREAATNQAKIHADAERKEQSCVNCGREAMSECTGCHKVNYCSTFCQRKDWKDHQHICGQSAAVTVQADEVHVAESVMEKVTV

B1: N52-69 (dsDNA)
DNA 1: TTCGGCTTCCCACTTCGG
DNA 2: CCGAAGTGGGAAGCCGAA
B2: Mut 2 (dsDNA)
DNA 1: TTTTGCTTCCCACTTTTG
DNA 2: CAAAAGTGGGAAGCAAAA

How the values were obtained:
DEAF1-FLAG [1] = target: T1, DEAF1-FLAG; assay: EMSA; doublet of shifted bands; EMSA: 100 mM KCl, 50 mM Tris pH 7.5, 1 mM DTT, 25 °C, 30 min protein preincubation then 30 min with 32P probe; 4% native gel; details: protein: recombinant; tags: FLAG (C-terminal, from the name DEAF1-FLAG; also written FLAG-DEAF1); chain copies: 2; label: 32P in EMSA
Ku70;FLAG-Ku80 = Ku70;FLAG-Ku80 (human?;human?, UniProt P12956;P13010 1-609;1-732, |); assay: EMSA; DNA end binding; EMSA: 100 mM KCl, 50 mM Tris pH 7.5, 1 mM DTT, 25 °C, 30 min protein preincubation then 30 min with 32P probe; 4% native gel; details: protein: recombinant;recombinant; tags: none;FLAG (N-terminal, from the name); copies: 1;1; label: 32P in EMSA
Chain of Ku70;FLAG-Ku80 (P12956 whole entry, chain 1 of 2): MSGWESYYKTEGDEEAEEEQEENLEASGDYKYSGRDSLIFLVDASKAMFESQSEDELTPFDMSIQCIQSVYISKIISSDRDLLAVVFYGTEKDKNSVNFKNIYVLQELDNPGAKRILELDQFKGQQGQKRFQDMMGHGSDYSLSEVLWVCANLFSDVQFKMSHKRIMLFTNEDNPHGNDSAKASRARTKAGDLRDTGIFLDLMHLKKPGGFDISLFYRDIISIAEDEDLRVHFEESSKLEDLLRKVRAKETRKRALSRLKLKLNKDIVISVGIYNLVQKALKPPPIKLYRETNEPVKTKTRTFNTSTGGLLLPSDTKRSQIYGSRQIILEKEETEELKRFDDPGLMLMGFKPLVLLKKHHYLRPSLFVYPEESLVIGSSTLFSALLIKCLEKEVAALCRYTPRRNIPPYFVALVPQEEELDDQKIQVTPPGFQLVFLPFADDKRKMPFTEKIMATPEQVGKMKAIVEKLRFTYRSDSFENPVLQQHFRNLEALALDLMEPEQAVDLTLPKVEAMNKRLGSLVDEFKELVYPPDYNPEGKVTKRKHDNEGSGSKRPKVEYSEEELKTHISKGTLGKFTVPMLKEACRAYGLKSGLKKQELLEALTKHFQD
Chain of Ku70;FLAG-Ku80 (P13010 whole entry, chain 2 of 2): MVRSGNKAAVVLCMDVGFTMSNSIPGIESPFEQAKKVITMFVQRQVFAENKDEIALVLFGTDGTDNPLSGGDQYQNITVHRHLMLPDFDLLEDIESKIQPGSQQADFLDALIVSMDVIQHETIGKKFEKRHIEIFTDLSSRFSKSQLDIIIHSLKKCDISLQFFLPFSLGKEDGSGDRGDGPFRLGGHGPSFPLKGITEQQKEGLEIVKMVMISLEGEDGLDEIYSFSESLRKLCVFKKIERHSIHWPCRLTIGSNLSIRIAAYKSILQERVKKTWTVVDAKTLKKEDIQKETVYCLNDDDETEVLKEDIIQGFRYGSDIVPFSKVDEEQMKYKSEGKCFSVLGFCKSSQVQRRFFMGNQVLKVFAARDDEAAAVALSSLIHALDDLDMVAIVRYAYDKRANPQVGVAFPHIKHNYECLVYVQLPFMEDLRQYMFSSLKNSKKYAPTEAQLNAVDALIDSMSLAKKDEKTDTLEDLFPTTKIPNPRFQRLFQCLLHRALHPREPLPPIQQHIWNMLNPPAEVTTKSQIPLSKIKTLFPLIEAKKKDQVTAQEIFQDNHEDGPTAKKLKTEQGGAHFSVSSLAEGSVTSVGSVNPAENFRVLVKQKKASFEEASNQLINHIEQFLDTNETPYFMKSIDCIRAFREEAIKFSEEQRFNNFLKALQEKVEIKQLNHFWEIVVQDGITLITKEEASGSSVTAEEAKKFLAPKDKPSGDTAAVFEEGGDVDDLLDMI

DEAF1-FLAG [2] = target: T1, DEAF1-FLAG; assay: EMSA; no shift; EMSA: 100 mM KCl, 50 mM Tris pH 7.5, 1 mM DTT, 25 °C, 30 min protein preincubation then 30 min with 32P probe; 4% native gel; details: protein: recombinant; tags: FLAG (C-terminal, from the name DEAF1-FLAG; also written FLAG-DEAF1); chain copies: 2; label: 32P in EMSA

Binder	binding result (DEAF1-FLAG [1])	binding result (Ku70;FLAG-Ku80)	binding result (DEAF1-FLAG [2])
B1	binds	binds	–
B2	–	binds	no binding

From paper PMC3307728
